This note sets out measurements from patent publication EP4745157A1 (Korea Research Institute of Bioscience and Biotechnology, dated 2026).

In test [1] the target is T1, TM4SF5-Fc antigen protein (UniProt O14894).
T1 sequence (looked up): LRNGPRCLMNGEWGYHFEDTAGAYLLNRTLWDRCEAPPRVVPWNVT
The test is described as follows: Biacore, TM4SF5-Fc immobilized directly on the chip. (In SPR one partner is held on a chip, and binding of the other changes the refractive index at the surface.)

Test [2] has as its target T2, hEC2-Fc-myc antigen (human) (UniProt O14894).
T2 sequence (looked up): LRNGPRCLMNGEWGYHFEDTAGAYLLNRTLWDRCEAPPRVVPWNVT
The test is described as follows: Octet (BLI), IgG against hEC2-Fc-myc. For orientation: In BLI a coated tip is dipped into the sample, and binding shifts an interference pattern.

The target of test [3] is T3, TM4SF5 (antigen of SPR/BIACORE/ELISA, construct not stated) (UniProt O14894 112-157, limits assumed).
T3 construct: also called TM4SF5 target
T3 chain (looked up): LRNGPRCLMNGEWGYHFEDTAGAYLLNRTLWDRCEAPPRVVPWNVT
Kind of test: SPR.

Test [4] concerns the target T2, hEC2-Fc-myc antigen (human). Kind of test: ELISA, IgG against hEC2-Fc-myc. (In general: In an ELISA, binding on a coated surface is turned into a signal by an enzyme label.)
Test [5] concerns the target T4, TM4SF5 (antigen of SPR/BIACORE/ELISA, construct not stated) (UniProt O14894).
T4 sequence (looked up): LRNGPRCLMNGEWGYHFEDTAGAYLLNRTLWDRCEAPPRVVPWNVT
The test is described as follows: SPR.

For test [6], the target named is T4, TM4SF5 (antigen of SPR/BIACORE/ELISA, construct not stated). Kind of test: BIACORE.

B1: huAb27-9_E01 IgG (antibody, V domains shown)
VH: EVQLVQSGADVKEPGASVKVSCKASGYTFTDYEMHWVRQAPGQGLEWMGAIDPETGGTAYNQKFKGWVTMTADKSISTAYMELSRLRSDDTAVYYCTRPYLGYWGQGTLVTVSS
VL: EIVLTQSPGMLSLSPGERATLSCRSSQSLVHRNGNTYLHWYQQKPGQAPRLLIYKVSNRFSGIPDRFSGSGSGTDFTLTISRLEPEDFAVYYCFQGSHIPLTFGQGTKVEIKR
B1: the fold improvement of antigen-binding affinity against parent huAb27-9 in test [1] amounted to 3 fold.

B2: 1-5 IgG (antibody, V domains shown)
VH: QVQLVQSGAEVKKPGASVKVSCKASGYTFTDYEMHWVRQAPGQGLEWMGAIDPETGGTFVKRKFKGRVTMTADKSISTAYMELSRLRSDDTAVYYCARPYLGYWGQGTLVTVSS
VL: EIVLTQSPGTLSLSPGERATLSCRSSQSLVHSNGNTYLHWYQQKPGQAPRLLIYKVSNRFSGIPDRFSGSGSGTDFTLTISRLEPEDFAVYYCFQGSHIPLTFGQGTKVEIK
notes: IgG; also called T1-5
For orientation: Kd means a measure of binding affinity in units of concentration. Read a low Kd as higher affinity. B2 displayed a fold improvement of KD relative to huAb27-9 in test [2] of 7.7 fold. Further, in test [3], the dissociation constant (Kd) was determined as 3.94 nM, the “fold improvement of KD against chimeric Ab27” value was ~4 fold and the “fold improvement of KD against humanized Ab27-hz9” value was ~2.4 fold.

B3: 2-1 IgG (antibody, V domains shown)
VH: QVQLVQSGAEVKKPGASVKVSCKASGYTFTDYEMHWVRQAPGQGLEWMGAIDPETGGTFVVSKFKGRVTMTADKSISTAYMELSRLRSDDTAVYYCARPYLGYWGQGTLVTVSS
VL: EIVLTQSPGTLSLSPGERATLSCRSSQSLVHSNGNTYLHWYQQKPGQAPRLLIYKVSNRFSGIPDRFSGSGSGTDFTLTISRLEPEDFAVYYCFQGSHIPLTFGQGTKVEIK
Take B3: the fold improvement of EC50 relative to huAb27-9 in test [4] is 41.4 fold. In test [2], this molecule yielded a fold improvement of KD relative to huAb27-9 of 12.6 fold.

B4: huAb27-9 scFv-Fc (Fc fusion, part only; not given: linker, domain order, hinge-Fc, not shown: another chain or arm of the molecule; a dimerising Fc or GST; small tags and cut ends)
VH: QVQLVQSGAEVKKPGASVKVSCKASGYTFTDYEMHWVRQAPGQGLEWMGAIDPETGGTAYNQKFKGRVTMTADKSISTAYMELSRLRSDDTAVYYCARPYLGYWGQGTLVTVSS
VL: EIVLTQSPGTLSLSPGERATLSCRSSQSLVHSNGNTYLHWYQQKPGQAPRLLIYKVSNRFSGIPDRFSGSGSGTDFTLTISRLEPEDFAVYYCFQGSHIPLTFGQGTKVEIK
On to B4, for which, in test [5], the Kd was found to be 7.23 nM and the fold difference in affinity against Ab27 scFv-Fc amounted to 1.4 fold.

B5: S43 (G2) (antibody, V domains shown, not shown: a dimerising Fc or GST)
VH: QVQLVQSGAEVKKPGASVKVSCKASGYRFTDYEMHWVRQAPGQGLEWMGAIDPAFGGTAYNQKFKGRVTMTADKSISTAYMELSRLRSDDTAVYYCARPYLGYWGQGTLVTVSS
VL: EIVLTQSPGTLSLSPGERATLSCRSSQSLVHSNGNTYLHWYQQKPGQAPRLLIYKVSNRFSGIPDRFSGSGSGTDFTLTISRLEPEDFAVYYCFQGSHIPLTFGQGTKVEIKG
Turning to B5, in test [6], the fold reduction in affinity against S43 worked out at 1.5 fold.

B6: EO1 H(G)L(GG) (antibody, V domains shown, not shown: a dimerising Fc or GST)
VH: EVQLVQSGADVKEPGASVKVSCKASGYTFTDYEMHWVRQAPGQGLEWMGAIDPETGGTAYNQKFKGWVTMTADKSISTAYMELSRLRSDDTAVYYCTRPYLGYWGQGTLVTVSS
VL: EIVLTQSPGMLSLSPGERATLSCRSSQSLVHRNGNTYLHWYQQKPGQAPRLLIYKVSNRFSGIPDRFSGSGSGTDFTLTISRLEPEDFAVYYCFQGSHIPLTFGQGTKVEIKG
As to B6, the fold improvement in affinity against EO1 in test [6] was 2 fold.

B7: huAb27-9 IgG (antibody, V domains shown)
VH: QVQLVQSGAEVKKPGASVKVSCKASGYTFTDYEMHWVRQAPGQGLEWMGAIDPETGGTAYNQKFKGRVTMTADKSISTAYMELSRLRSDDTAVYYCARPYLGYWGQGTLVTVSS
VL: EIVLTQSPGTLSLSPGERATLSCRSSQSLVHSNGNTYLHWYQQKPGQAPRLLIYKVSNRFSGIPDRFSGSGSGTDFTLTISRLEPEDFAVYYCFQGSHIPLTFGQGTKVEIKR
notes: IgG1 format; also called Hz#9 IgG; Hz #9 IgG
B7 registered a Kd in test [3] of 9.46 nM.

B8: S43 IgG (antibody, V domains shown)
VH: QVQLVQSGAEVKKPGASVKVSCKASGYRFTDYEMHWVRQAPGQGLEWMGAIDPAFGGTAYNQKFKGRVTMTADKSISTAYMELSRLRSDDTAVYYCARPYLGYWGQGTLVTVSS
VL: EIVLTQSPGTLSLSPGERATLSCRSSQSLVHSNGNTYLHWYQQKPGQAPRLLIYKVSNRFSGIPDRFSGSGSGTDFTLTISRLEPEDFAVYYCFQGSHIPLTFGQGTKVEIK
notes: IgG1; also called huAb27-9_M74; M74
On to B8, for which, in test [3], the Kd amounted to 4.19 nM, the “fold improvement of KD against chimeric Ab27” value is ~4 fold and the “fold improvement of KD against humanized Ab27-hz9” value was ~2.4 fold.
